Reference: patent US11312769B2, “Anti-TMEFF1 antibodies and antibody drug conjugates” (Bluefin BioMedicine, Inc., priority 2017, dated 2022)
Values belong to the molecule of their own block, whether it stands above or below them.

Assays:
recombinant TMEFF1 = biological target: T1, recombinant TMEFF1 (Homo sapiens, UniProt Q8IYR6); test: Binding competition binning (Octet); conditions: seven antibodies, 3 bins
T1 construct: generated to secrete the ECD from CHO cells to assist with biophysical evaluations; His tag (C); made in house; host or cells: CHO (ExpiCHO)
T1 sequence (Q8IYR6 40-330 limits assumed): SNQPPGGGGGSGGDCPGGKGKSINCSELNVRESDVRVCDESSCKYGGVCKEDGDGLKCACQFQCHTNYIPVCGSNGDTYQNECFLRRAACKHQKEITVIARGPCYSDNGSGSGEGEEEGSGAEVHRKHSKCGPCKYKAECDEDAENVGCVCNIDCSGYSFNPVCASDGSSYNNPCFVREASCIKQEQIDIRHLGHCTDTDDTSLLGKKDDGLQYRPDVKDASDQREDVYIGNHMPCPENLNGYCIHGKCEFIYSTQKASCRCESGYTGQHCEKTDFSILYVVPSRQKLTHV
Protocol: Binding competition among different antibodies was determined using a real-time, interferometry assay on an Octet Red™ instrument with Protein A-conjugated biosensors. To assess whether two antibodies competed for binding to a recombinant TMEFF1 protein, the assay was performed as follows. Protein A biosensors were first submerged into wells containing 10 ug/mL of individual monoclonal antibodies for 5 minutes. Following the capture step, the biosensors were dipped briefly (15 seconds) into buffer and then any unoccupied sites on the biosensor were saturated by submerging them for 5 minutes into wells containing 100 ug/mL of an irrelevant monoclonal antibody. The Octet biosensors were then dipped briefly (15 seconds) in buffer before immersion for 1 minute into wells containing recombinant TMEFF1. The biosensors were dipped briefly (15 seconds) in buffer before immersion for 1 minute into wells containing a second recombinant antibody.
For the control case where the second antibody was the same as the first, there was no increase in signal, because there was no additional binding to the recombinant target.
For the control case where buffer was used instead of the first antibody, no recombinant target bound the non-quenching antibody on the biosensor and no second antibody bound the biosensor.
Competition binning using Octet™ was done with seven antibodies and 3 separate bins were identified.

[1] = system: hTMEFF1-ECD recombinant deletion mutants; test: Binding domain determination with hTMEFF1-ECD deletion mutants (Octet); set-up: species or system human; key: FS1—follistatin domain 1; FS2—follistatin domain 2; conditions: full length TMEFF1 ECD vs ΔFS1, ΔFS2, ΔFS1&FS2
Description: TMEFF1 recombinant proteins expressing 3 different deletion mutants, AFS1 (AFollistatin Domain 1), AFS2 (AFollistatin Domain 2) or AFS1&FS2 were used to identify binding domains among different antibodes using an Octet Red instrument with Anti-Penta-His (HIS 1K) biosensors. Expression of the 3 deletion mutants was confirmed by WB analysis. 100 ngs of purified TMEFF1 ECD was run along with unpurified supernatant of transfected CHO cells with the different deletion mutants. HIS 1K biosensors were loaded by submerging the biosensors into wells containing 10 ug/ml of full length TMEFF1 or one of 3 different deletion mutants (AFS1, AFS2 or AFS1&FS2) for 60 seconds. Following the loading step, the biosensors were then dipped for 30 seconds in PBS before immersion for 30 seconds in 200 ul of unpurified recombinant antibodies for 30 seconds. The biosensors were then dipped briefly (30 seconds) in PBS to observe any dissociation. Samples were determined to show binding or no binding by comparing to a control well that contained no recombinant antibody. Differential binding to the deletion mutants allowed for determination of binding sites on TMEFF1 recombinant protein. For cases where the antibody bound all 3 recombinant proteins, the binding is outside of the deleted domains. For the case where binding is observed only on full length TMEFF1 and AFS2, the antibody is binding in the ΔFS1 domain.
26 of the identified antibodies were checked for epitope domain binding by Octet™ using the hTMEFF1-ECD recombinant deletion mutants (see Table 7, below).

293-hTMEFF1 cells = test: Flow based antibody internalization assay; type: cell-based, human; conditions: 293-hTMEFF1 fixed with PFA, antibody 1 ug/ml, 30-120 min
Protocol: For Flow based internalization assay, 293-hTMEFF1 cells were collected and either fixed with 4% paraformaldehyde (PFA) for 20 minutes at 37° C. or kept live on ice. Cells were then incubated on ice for 40 minutes with anti-TMEFF1 antibody at 1 ug/ml, washed 2× with ice cold PBS, resuspended in complete warm media and incubated at 37° C. for 30, 60 or 120 minutes. Live cells were then fixed at those time points, washed 2× with PBS and labeled with fluorescent conjugated secondary antibody for 30 minutes on ice.
Antibody mediated TMEFF1 internalization was evaluated by Flow cytometry with five human anti-TMEFF1 antibodies in 293-hTMEFF1 cells. Fixed cells were treated with the antibody as a control of antibody loss due to detachment rather than internalization which would result in reduce signal. Thus a constant signal over time in fixed cells and a loss of signal in live cells would indicate antibody internalization. […] In live cells, it was observed that most antibodies show about a 50% internalization by 30 min of treatment (FIG. 1B).

Competition binning (epitope bin) (recombinant TMEFF1): compete with each other and bind FS1 | Binding region (epitope domain binding) [1]: FS1
B1: 36H6: human anti-TMEFF1 IgG1 antibody; VH SEQ ID NO: 43, VL SEQ ID NO: 47 (antibody, V domains shown)
VH: QVQLVESGGGVVQPGRSLRLSCAASGFTFSDYGMHWVRQAPGKGLEWVAVIWYEGGNKYYTDSVKGRFTISRDNSKNTLYLQMNSLRAEDTAVYYCARILLWFGESYGMDVWGQGTTVTVSS
VL: DIQMTQSPSSLSASVGDRVTITCRASQGISNYLAWYQQKPGKVPKLLIYAASTLQSGVPSRFSGSGSGTDFTLTISSLQPEDVATYYCQKYNNAPWTFGQGTKVEIK
Cell surface binding in fixed cells over the duration of the assay (293-hTMEFF1 cells): consistent cell surface binding in fix cells

Binding region (epitope domain binding) [1]: other
B2: 31B7: human anti-TMEFF1 IgG1 antibody; VH SEQ ID NO: 17, VL SEQ ID NO: 21 (antibody, V domains shown)
VH: QVQLVESGGGVVQPGRSLRLSCAASGFTFSSYGMHWVRQAPGKGLEWVAVIWYNGINKYYADSVKGRFTISRDASKNTLYLQMNSLRAEDTAVYYCAREGLLWFGGMDVWGQGTTVTVSS
VL: EIVLTQSPLSLPVTPGEPASISCRSSQSLLHSNGYNYLHWYLQKPGQSPQLLIYLGSNRASGVPDRFSGSRSGTDFTLKIIRVEAEDVGVYYCMQALQTPYTFGQGTKLEIK
Competition binning (epitope bin) (recombinant TMEFF1): bind a region different from FS1 or FS2 and compete with each other | Cell surface binding in fixed cells over the duration of the assay (293-hTMEFF1 cells): consistent cell surface binding in fix cells

Competition binning (epitope bin) (recombinant TMEFF1): compete with each other and bind FS1 | Binding region (epitope domain binding) [1]: FS1
B3: 24F10: human anti-TMEFF1 IgG1 antibody; VH SEQ ID NO: 33, VL SEQ ID NO: 36 (antibody, V domains shown)
VH: QVQLVESGGGVVQPGRSLRLSCAASGFTFSSYGMHWVRQAPGKGLEWVAVIWYDGSDKYYTDSVKGRFTISRDNSKNTLYLQMNSLRAEDTAVYYCARESMVRGIVITFFDYWGQGTLVTVSS
VL: EIVMTQSPATLSVSPGERATLSCRASQSVSSNLAWYQQKPGQAPRLLIYGASTRATGIPARFSGSGSGTEFTLTISSLQSEDFAVYSCQHYNNWPPTFGGGTKVEIK
Cell surface binding in fixed cells over the duration of the assay (293-hTMEFF1 cells): consistent cell surface binding in fix cells
